The values below come from patent publication US7256256B1, “CDK4 binding peptide” (United States of America as represented by the Secretary, …, priority 1999, dated 2007).

In one assay the target is T1, CDK4 and cyclin D1 (Mus musculus, UniProt P30285).
T1 construct: made in house; host or cells: Sf9 insect cells coinfected with baculovirus stocks (from C. J. Sherr)
Nature of the assay: In vitro CDK4 kinase assay on GST-RB, Western blot with phosphoserine 780/795 antibodies. The format is biochemical. The settings on record: proteins added in two-fold increments from 75 ng to 300 ng; phosphoserine 780 antibody (identical with 795). The procedure:
Active CDK4 was produced in Sf9 cells coinfected with baculovirus stocks encoding CDK4 and cyclin D1 (from C. J. Sherr).
The kinase assay was performed essentially as described by Kato, et al., Genes Dev, (1993), 7(3):331–42. The CDK4-specific kinase inhibitor p16 (from D. Beach, [as described in Serrano, et al., Nature, (1993), 366(6456): 704–7]) was used as a GST-p16 fusion added to the kinase reaction. The GST-RB fusion (767–928) was used as a kinase target as previously described Kato, et al., Genes Dev, (1993), 7(3):331–42.
To test for kinase inhibition, the various proteins and protein domains were added to the reaction in two-fold increments from 75 ng to 300 ng. […] For the GST constructs, total protein concentration was kept constant in the kinase reaction by adding GST protein. After the assay the total reaction was run on SDS PAGE gels and analyzed by Western blot analysis. Specific phosphorylation of RB was measured with rabbit polyclonal antibodies to RB phosphoserines 780 or 795 (New England Biolabs).
In general terms: Immunoblotting shows a protein as a band on a membrane.

Another assay deals with 10T1/2 cells. The experiment in a line: BrdU incorporation growth arrest assay in transfected 10T1/2 cells. The format is cell-based, mouse. The note with it: for growth inhibitory activity (BrdU positive cells): 10T1/2 cells, 20% fetal calf serum, one hour BrdU pulse, domains with NLS in pCDNA3 or GST-pCEFL. The procedure:
10T1/2 cells in growth medium were cotransfected with plasmids expressing full-sized MyoD(CMD1) or the indicated domains, either as GST fusions in GST-pCEFL or as subclones in pCDNA3, along with a lacZ expression construct, pCH110, to mark transfected cells. The various domains were targeted to the nucleus with a nuclear tag in the absence of an existing NLS.
Cultures were maintained in 20% fetal calf serum. 72 hours after transfection cultures were refed with the same medium and 12 hours later they were given a one hour pulse with BrdU (10 μM) prior to fixation, as previously described by Crescenzi et al., PNAS USA 1990 87(21):8442–6; and Sorrentino et al., Nature, 1990 345(6278):813–5. Cells were then reacted with rabbit anti-BrdU antibody (Jackson labs) and Xgal.
In general terms: Uptake of a labelled nucleoside into DNA is a usual measure of proliferation.

The test system of a further assay is C2C12 myoblasts. The experiment in a line: RB phosphorylation and growth inhibition in cotransfected C2C12 myoblasts. Format: cell-based, mouse. An excerpt: C2C12 myoblasts were cotransfected with a GST-pCEFL RB expression plasmid (RB aa 767–928) and pCDNA3 expression plasmids for full-sized or the C-terminus of MyoD(CMD1). GST-RB was recovered from the cells using methods known to those of skill in the art. The samples were adjusted for equal levels GST protein and loaded on SDS-PAGE gels for western analysis by phosphoserine 780 and 795-specific antibodies.

Assay [1] concerns the target T2, CDK4 (Mus musculus, UniProt P30285).
T2 sequence (P30285 1-303): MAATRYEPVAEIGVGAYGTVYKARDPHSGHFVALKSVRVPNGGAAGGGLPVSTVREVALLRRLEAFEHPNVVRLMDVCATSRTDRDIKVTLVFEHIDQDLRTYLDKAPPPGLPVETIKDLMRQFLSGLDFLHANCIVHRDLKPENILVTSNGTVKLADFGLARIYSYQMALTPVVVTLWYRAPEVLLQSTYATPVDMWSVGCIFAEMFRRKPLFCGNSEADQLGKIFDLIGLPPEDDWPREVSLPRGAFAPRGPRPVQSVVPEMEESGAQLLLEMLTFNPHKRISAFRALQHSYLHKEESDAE
Nature of the assay: GST fusion pull-down binding assay with CDK4 from Sf9 cell extracts, anti-CDK4 immunoblot. The arrangement: made in house; host or cells: Sf9 insect cells, baculovirus. The note with it: GST fusion protein on glutathione agarose; CDK4 from baculovirus infected Sf9 cell extracts. Here is the method:
The Sf9 cell extract was incubated with agarasoe bound with either glutathione transferase (GST) alone, or GST fusion proteins encoding one of the four different vertebrate myogenic factors from chicken: CMD1 (MyoD), Ch-myogenin, Ch-myf5 an Ch-mrf4 using methods known to those of skill in the art. Any GST complexes formed were recovered on glutathione-Sepharose beads. The recovered GST complexes were then washed, heated in sample buffer and loaded on an SDS-PAGE gel.
The gel was then analyzed by immunoblot with anti-CDK4 affinity purified rabbit polyclonal antibody on HyBond ECL (Amersham). The anti-CKD4 antibody was diluted 1:2,000–5,000. The second antibody was HRP anti-rabbit and was diluted 1:10,000 (Pierce cat. no. 31460). The signal was detected using SuperSignal Ultra Reagent (Pierce cat. no. 34075).
Proteins were expressed in E. coli strain BL21 (DE3) and purified as described by Shirakata et al., Genes Dev. 1993 7(12A):2456–70. The MyoD-GST fusion proteins were bound to glutathione agaraose.
The binding experiments were performed with CDK4 produced in the baculovirus system (Kato et al., Genes Dev. 1993 7(3):331–42) essentially as described by Kaelin et al., Cell 1991 64(3):521–32.
Deletion mapping of the MyoD (CMD1) carboxy terminus narrowed the CDK4-binding region to a maximum of fifteen amino acids between residues 189–203, well outside the bHLH domain (FIG. 10b, lanes 4 and 5). To confirm that these fifteen amino acids bound CDK4, the fifteen amino acid peptide was joined to glutathione transferase and tested for its ability to bind the CDK4 from Sf9 cell extracts.

The test system of assay [2] is CDK4 target sites, serines 780 and 795 of RB. The experiment in a line: Phosphorylation of cotransfected GST-RB target in 10T1/2 cells, Western blot. Format: cell-based, mouse. The note with it: 48 hours after transfection, nuclear extracts. The procedure:
The inhibitory activity of the fifteen amino acid CDK4 binding peptide on RB phosphorylation in cells was examined by fusing the fifteen amino acid CDK4-binding peptide of MyoD with a nuclear localization tag to the carboxy terminus of GFP and used in the same transfection protocol with GST-RB.
10T1/2 cells were cotransfected with a GST-RB target (amino acids 767–928) containing a nuclear localization tag, and either MyoD(CMD1) or the carboxy terminus of MyoD with an NLS.
48 hours after transfection, nuclear extracts of the 10T1/2 cells were prepared. The nuclear extracts were passed over glutathione agaraose to capture the GST-RB target.
Western blot analysis of the captured GST-RB target was performed with phosphoserine specific antibodies to the CDK4 target sites, serines 780 and 795. Gel loadings for the phosphoserine antibody analysis were adjusted to the same amount of GST-RB target protein by preliminary western analysis of the extracts (FIG. 13).

Assay [3] deals with T2, CDK4. Nature of the assay: Mammalian two-hybrid luciferase reporter assay with vp16-CDK4 in 10T1/2 fibroblasts. Format: cell-based. The note with it: average of three experiments. The text has this: The interaction between MyoD and CDK4 in vivo was examined using a mammalian version of the yeast two hybrid system described by Finkel et al., (1993) J Biol Chem 268, 5–8.
MyoD and myogenin (MGN) were each cloned into the gal4 DNA-binding domain vector, pM. CDK4 was inserted into the vp16 activation domain plasmid, pVP16 using methods known to those of skill in the art.
10T1/2 fibroblasts (3×10^5 cells per 60 mm dish or multiwell plate) grown in DMEM with either 10% fetal calf serum were co-transfected with either gal4-MyoD or gal4-MGN along with vp16-CDK4 and a luciferase reporter using Fugene-6 (Boehringer-Mannheim) according to the manufacturer's directions. 1 μg gal4 luciferase reporter, 2 μg each of the gal4 (pM vector, Clonetech) and vp16 (pvp16 vector, Clonetech) constructs, and 300 ng of the beta galactosidase reporter pCH110 (Pharmacia), a total of 5.3 μg DNA, were used in each transfection. The pSV2-beta galactosidase reporter was used to normalize transfection efficiencies.
After 24–36 hours, if required, cells were placed in 2% horse serum plus insulin (10 μg/ml) to induce differentiation and destabilize cyclin D1. […]
24–48 hours after transfection, the luciferase reporter assay was performed according to the manufacturer's directions (Promega, cat. no. E4030) and measured in a Victor 1420 Multilabel Counter. […]

T1 sequence (P25322 whole entry partner, one chain of several): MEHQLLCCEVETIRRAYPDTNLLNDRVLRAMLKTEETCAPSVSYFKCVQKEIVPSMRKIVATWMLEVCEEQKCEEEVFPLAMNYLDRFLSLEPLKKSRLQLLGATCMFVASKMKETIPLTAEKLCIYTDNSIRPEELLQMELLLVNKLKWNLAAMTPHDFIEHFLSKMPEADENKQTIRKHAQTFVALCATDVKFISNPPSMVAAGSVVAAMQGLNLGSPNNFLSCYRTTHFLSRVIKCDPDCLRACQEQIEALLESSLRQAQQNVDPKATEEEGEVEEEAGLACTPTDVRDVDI

Take “fifteen amino acid CDK4-binding peptide: amino acids 189–203 of chicken MyoD (CMD1), SEQ ID NO: 1; tested as GST fusion, with NLS in cells”: in the assay with CDK4 and cyclin D1, the “inhibition of CDK4-dependent phosphorylation of RB (GST-RB) in vitro” value (“inhibition” below) was “inhibit”. In addition, the “growth inhibitory activity (BrdU positive cells)” value (“growth inhibitory activity” for short) in the assay on 10T1/2 cells is “as potent as full-sized MyoD(CMD1) in growth inhibitory activity”. In addition, in the assay with 10T1/2 cells (data not shown), the “growth inhibitory effect when the peptide further includes nuclear localization signal (NLS)” value was “enhanced”. The “CDK4 kinase activity and cell growth when expressed in cell nuclei” value with C2C12 myoblasts is “inhibits CDK4 kinase activity and cell growth”. In addition, the “binding to CDK4” value with CDK4 [1] is listed as “bound CDK4 as efficiently as full-sized MyoD (CMD1)”.

B1: bHLH domain of MyoD(CMD1): amino acids 93–153 of CMD1 (protein, UniProt P16075 93-153, looked up, fragment)
chain: KRKTTNADRRKAATMRERRRLSKVNEAFETLKRCTSTNPNQRLPKVEILRNAIRYIESLQA
As to B1, the “inhibition” value with CDK4 and cyclin D1 is given as “neither the N-terminus (amino acids 1–92) nor the bHLH domain of MyoD(CMD1) inhibited CDK4 activity”. Also, the “growth inhibitory activity” value in the assay with 10T1/2 cells is reported as “effective at inhibiting cell growth”.

B2: full-length MyoD(CMD1): full-sized chicken MyoD (CMD1), muscle specific bHLH transcription factor; used as GST, his-tag or gal4 constructs (protein, UniProt P16075 1-298, looked up)
chain: MDLLGPMEMTEGSLCSFTAADDFYDDPCFNTSDMHFFEDLDPRLVHVGGLLKPEEHPHTRAPPREPTEEEHVRAPSGHHQAGRCLLWACKACKRKTTNADRRKAATMRERRRLSKVNEAFETLKRCTSTNPNQRLPKVEILRNAIRYIESLQALLREQEDAYYPVLEHYSGESDASSPRSNCSDGMMEYSGPPCSSRRRNSYDSSYYTESPNDPKHGKSSVVSSLDCLSSIVERISTDNSTCPILPPAEAVAEGSPCSPQEGGNLSDSGAQIPSPTNCTPLPQESSSSSSSNPIYQVL
modifications: full-length GST, His or gal4 tagged
notes: full-sized chicken MyoD (CMD1), muscle specific bHLH transcription factor; used as GST, his-tag or gal4 constructs
As to B2, the “inhibition” value with CDK4 and cyclin D1 is reported as “inhibit”. Moreover, in the assay with 10T1/2 cells, the “growth inhibitory activity” value was “showed growth inhibitory activity”. Besides, the “phosphorylation of serines 780 and 795 on cotransfected RB target protein” value in assay [2] was “reduced the phosphorylation of serines 780 and 795”. For the same molecule, in the assay with CDK4 [3], the “vp16 CDK4-dependent luciferase reporter activity” value was “four-fold increase”. In addition, the “binding to CDK4” value with CDK4 [1] is “binds specifically”.

B3: Myogenin: chicken myogenic factor that does not bind CDK4, used as the control (protein, UniProt P17920 1-227, looked up)
Myogenin: MELFETNPYFFPEQRFYDGENFLGSRLQGYEAAAFPERPEVTLCPESRGALEEKDSTLPEHCPGQCLPWACKICKRKTVSIDRRRAATLREKRRLKKVNEAFEALKRSTLLNPNQRLPKVEILRSAIQYIERLQSLLSSLNQQEREQRELRYRPAAPQPAAPSECGSGSSSCSPEWSTQLEFGTNPADHLLSDDQAEDRNLHSLSSIVESIAVEDVAVTFPEERVQN
modifications: gal4 fusion
As for B3, the “inhibition” value with CDK4 and cyclin D1 is listed as “no inhibitory effect”. Moreover, in the assay with CDK4 [1], the “binding to CDK4” value is recorded as “does not bind to CDK4”.

B4: C-terminus of MyoD(CMD1): amino acids 153–298 of CMD1 (protein, UniProt P16075 153-298, looked up, fragment)
chain: ALLREQEDAYYPVLEHYSGESDASSPRSNCSDGMMEYSGPPCSSRRRNSYDSSYYTESPNDPKHGKSSVVSSLDCLSSIVERISTDNSTCPILPPAEAVAEGSPCSPQEGGNLSDSGAQIPSPTNCTPLPQESSSSSSSNPIYQVL
With B4, in the assay with CDK4 and cyclin D1, the “inhibition” value was “inhibit”. Also, the “phosphorylation of serines 780 and 795 on cotransfected RB target protein” value in assay [2] is “reduced the phosphorylation of serines 780 and 795”. Further, the “binding to CDK4” value in the assay with CDK4 [1] is given as “CDK4 bound”.

B5: N-terminus (amino acids 1–92): amino acids 1–92 of CMD1 (protein, UniProt P16075 1-92, looked up, fragment)
chain: MDLLGPMEMTEGSLCSFTAADDFYDDPCFNTSDMHFFEDLDPRLVHVGGLLKPEEHPHTRAPPREPTEEEHVRAPSGHHQAGRCLLWACKAC
On to B5, for which the “inhibition” value with CDK4 and cyclin D1 is reported as “neither the N-terminus (amino acids 1–92) nor the bHLH domain of MyoD(CMD1) inhibited CDK4 activity”. For the same molecule, the “growth inhibitory activity” value in the assay with 10T1/2 cells is reported as “ineffective in growth inhibition”.
